Results on three molecules are retold here after US20210095019A1 (I MAB, published 2021).

Where two headings read alike, the source gives them in different places.

Assay [1] addresses primary human AML cells (CD47 on PBMCs of AML patient AML-PB003F) (human) (UniProt Q08722).
Assay [2] addresses human red blood cells (CD47 on RBC) (human) (UniProt Q08722). Briefly: flow cytometry on human RBCs, Donor 2, antibody 10 ug/mL. (A flow cytometer gives signals particle by particle.)
Assay [3] deals with primary human AML cells (CD47 on PBMCs of AML patient AML-PB003F) (human) (UniProt Q08722). As to the kind of experiment: flow cytometry on primary AML cells (AML-PB003F); concentration not given.
The target in assay [4] is human red blood cells (CD47 on RBC) (human) (UniProt Q08722). As to the kind of experiment: flow cytometry on human RBCs, Donor 1, antibody 10 ug/mL.
Assay [5] deals with human platelets (CD47 on CD61-positive platelets) (human) (UniProt Q08722). Briefly: flow cytometry on human whole blood, gated on CD61+ platelets, antibody 10 ug/mL.
The target of assay [6] is Recombinant human CD47-Fc fusion protein (Acrobiosystems) (human) (UniProt Q08722). As to the kind of experiment: blocking ELISA: SIRPa-His (1 ug/mL) binding to coated CD47-Fc, anti-His HRP.
The target in assay [7] is Recombinant human CD47/mouse Fc fusion protein (Acrobiosystems) (human) (UniProt Q08722). As to the kind of experiment: ELISA on coated CD47/mouse Fc fusion protein (1 ug/ml), anti-human Fc HRP. Background: ELISA stands for enzyme-linked immunosorbent assay.
Assay [8] deals with human red blood cells (CD47 on RBC) (human) (UniProt Q08722). Briefly: flow cytometry on human RBCs, APC secondary antibody.
For assay [9], the target named is human CD47 on Raji cells (human) (UniProt Q08722). As to the kind of experiment: flow cytometry on Raji cells, APC anti-human Fc.
The target of assay [10] is primary human AML cells (CD47 on PBMCs of AML patient AML-PB003F) (human) (UniProt Q08722). This is another data set of the same source.
Assay [11] deals with Biotinylated CD47 protein (Acrobiosystems) (human) (UniProt Q08722). As to the kind of experiment: ELISA on coated biotinylated CD47 protein (1 ug/mL), anti-human Fc HRP.
Assay [12] deals with T1, Biotinylated CD47 protein (Acrobiosystems) (human, UniProt Q08722 19-139, biotinylated (site not stated)).
T1 construct: extracellular domain; Bought reagent; also called monomeric CD47-ECD; biotinylated human CD47-ECD protein
The assay is described as above. The protocol: After coating of antigen, the wells were blocked with PBS/0.05% Tween (PBST) with 1% BSA for 1 hour at RT. […] Between all incubation steps, the wells of the plate were washed with PBST three times. Fluorescence was measured in a TECAN Spectrafluor plate reader.

Turning to IgG (antibody), in assay [1], the phagocytosis: percent of CFSE+ AML cells among CD14+ macrophages stood at 27%. In addition, the Binding (percent of RBC in the gate) was found to be 0.018% in assay [2] and 0.079% in assay [4]. The molecule also had an AML Binding (percent of cells in the gate) in assay [3] of 27.6%.
Take “Reference antibody 2A1 (produced according to the sequence of CC-90002)”: the Binding (percent of CD61+ platelets in the gate) in [5] amounted to 0.41%. For the same molecule, in assay [6], the IC50 (read off the curve) was 0.2 mg/L. Besides, the EC50 (read off the curve) in [7] stood at 0.006 mg/L; in [8] it was 0.06 mg/L; in assay [9], 0.1 mg/L; in [11], 0.03 mg/L. Also, in assay [3], the AML Binding (percent of cells in the gate) was determined as 75.1%. In assay [10], this molecule came in with a phagocytosis: percent of CFSE+ AML cells among CD14+ macrophages of 36.8%.

B1: CD47 antibody 1F8 (antibody, V domains shown)
VH: KVQLVESGGGLVKPGGSLRLSCAASGFTFSNAWMNWVRQAPGKGLEWVGRIKRKTDGETTDYAAPVKGRFSISRDDSKNTLYLQMNSLKTEDTAVYYCAGSNRAFDIWGQGTMVTVSA
VL: DIVMTQSPDSLAVSLGERATINCKSSQSVLYSSNNRNYLAWYQQKPGQPPKLLINQASTRASGVPDRFSGSGSGTEFTLIISSLHAEDVAIYYCQQYYTPPLAFGGGTKLEIK
B1 registered a Binding (percent of CD61+ platelets in the gate) in [5] of 0.77%. The Binding (percent of RBC in the gate) in [2] stood at 0.076%; in assay [4], 0.065%. For the same molecule, the “EC50 (read off the curve)” value in [12] was around 0.008 mg/L.

The term EC50 (read off the curve) denotes the midpoint of the concentration-response curve.
